Positions count from the first letter of the chain named.
T1: LIN7B, Q9HAP6
T1 sequence (Q9HAP6 88-185, limits assumed, looked up): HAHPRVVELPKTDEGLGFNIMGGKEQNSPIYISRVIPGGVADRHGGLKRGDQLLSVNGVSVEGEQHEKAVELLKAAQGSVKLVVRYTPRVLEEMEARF

T2: MPDZ_12, O75970
T2 sequence (O75970 1857-1958, limits assumed, looked up): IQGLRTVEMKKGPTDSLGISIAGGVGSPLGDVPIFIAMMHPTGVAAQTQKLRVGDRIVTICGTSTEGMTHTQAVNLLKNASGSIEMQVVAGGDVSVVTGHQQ

T3: SHANK1, Q9Y566
T3 sequence (Q9Y566 658-767, limits assumed, looked up): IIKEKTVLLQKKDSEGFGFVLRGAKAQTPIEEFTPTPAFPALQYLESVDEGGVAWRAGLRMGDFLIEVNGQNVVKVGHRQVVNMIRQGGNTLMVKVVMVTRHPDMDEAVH

T4: DVL3, Q92997
T4 sequence (Q92997 244-331, limits assumed, looked up): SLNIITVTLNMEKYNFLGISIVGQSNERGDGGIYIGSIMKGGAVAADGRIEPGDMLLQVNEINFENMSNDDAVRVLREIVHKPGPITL

T5: TX1BP3, O14907
T5 sequence (O14907 10-122, limits assumed, looked up): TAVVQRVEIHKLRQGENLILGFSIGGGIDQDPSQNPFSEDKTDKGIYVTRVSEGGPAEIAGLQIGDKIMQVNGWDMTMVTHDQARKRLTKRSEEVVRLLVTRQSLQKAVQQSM

T6: LIN7A, O14910
T6 sequence (O14910 103-200, limits assumed, looked up): T1 sequence (Q9HAP6 88-185, limits assumed, looked up) with A2S, I20V, V35I, D42E, Q65H, Q77K, G78D, R89K

T7: DLG3_3, Q92796
T7 sequence (Q92796 374-475, limits assumed, looked up): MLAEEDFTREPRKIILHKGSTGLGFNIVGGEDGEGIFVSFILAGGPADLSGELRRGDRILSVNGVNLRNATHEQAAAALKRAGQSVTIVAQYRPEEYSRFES

T8: PTPN13_1, Q12923
T8 sequence (Q12923 1088-1188, limits assumed, looked up): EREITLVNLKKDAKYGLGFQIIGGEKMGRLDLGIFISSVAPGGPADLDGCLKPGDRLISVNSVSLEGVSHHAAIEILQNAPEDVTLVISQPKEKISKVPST

T9: PCLO, Q9Y6V0
T9 sequence (Q9Y6V0 4491-4600, limits assumed, looked up): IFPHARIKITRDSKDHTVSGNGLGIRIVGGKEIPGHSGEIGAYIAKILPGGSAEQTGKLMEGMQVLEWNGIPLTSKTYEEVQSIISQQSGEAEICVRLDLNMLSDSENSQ

T10: DLG3_1, Q92796
T10 sequence (Q92796 125-227, limits assumed, looked up): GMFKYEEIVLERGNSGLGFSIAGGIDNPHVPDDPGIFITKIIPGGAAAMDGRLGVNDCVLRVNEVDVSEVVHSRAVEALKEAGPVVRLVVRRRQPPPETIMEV


These binders were tested against GORASP2, Q9H8Y8 (assay: holdup assay). Settings: plain residues with an end cap or a label only (N-terminal biotin on a linker: ado-ado).
Parameters: key: below the threshold = too weak to quantify, mostly under pKd 3.1 to 4

Binder | pKd
PSDSVGKDVF [EGLN1, Q9GZT9] | below the threshold
KAEEKPPSKV [SCN4B, Q8IWT1] | below the threshold

Each binder was assayed against T1, LIN7B, Q9HAP6 (assay: holdup assay). Settings: plain residues with an end cap or a label only (N-terminal biotin on a linker: ado-ado).
Parameters: key: below the threshold = too weak to quantify, mostly under pKd 3.1 to 4

Binder | pKd
PSDSVGKDVF [EGLN1, Q9GZT9] | 3.55
KAEEKPPSKV [SCN4B, Q8IWT1] | below the threshold

The binders below were run against Inadl_9, Q8NI35 (assay: holdup assay). Settings: plain residues with an end cap or a label only (N-terminal biotin on a linker: ado-ado).
Chain of Inadl_9, Q8NI35 (Q8NI35 1530-1615): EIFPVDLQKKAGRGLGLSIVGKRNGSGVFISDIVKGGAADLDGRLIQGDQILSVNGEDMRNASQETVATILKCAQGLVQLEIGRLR
Parameters: key: below the threshold = too weak to quantify, mostly under pKd 3.1 to 4

Binder | pKd
PSDSVGKDVF [EGLN1, Q9GZT9] | below the threshold
KAEEKPPSKV [SCN4B, Q8IWT1] | 3.8

Each binder was assayed against T2, MPDZ_12, O75970 (assay: holdup assay). Settings: plain residues with an end cap or a label only (N-terminal biotin on a linker: ado-ado).
Parameters: key: below the threshold = too weak to quantify, mostly under pKd 3.1 to 4

Binder | pKd
PSDSVGKDVF [EGLN1, Q9GZT9] | below the threshold
KAEEKPPSKV [SCN4B, Q8IWT1] | 3.49

Each binder was assayed against DLG1_2, Q12959 (assay: holdup assay). Settings: plain residues with an end cap or a label only (N-terminal biotin on a linker: ado-ado).
Chain of DLG1_2, Q12959 (Q12959 314-412): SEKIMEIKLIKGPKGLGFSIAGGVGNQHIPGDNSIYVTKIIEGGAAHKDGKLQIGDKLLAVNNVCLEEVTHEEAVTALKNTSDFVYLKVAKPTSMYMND
Parameters: key: below the threshold = too weak to quantify, mostly under pKd 3.1 to 4

Binder | pKd
PSDSVGKDVF [EGLN1, Q9GZT9] | below the threshold
KAEEKPPSKV [SCN4B, Q8IWT1] | 3.52

What follows are binders tested against T3, SHANK1, Q9Y566 (assay: holdup assay). Settings: plain residues with an end cap or a label only (N-terminal biotin on a linker: ado-ado).
Parameters: key: below the threshold = too weak to quantify, mostly under pKd 3.1 to 4

Binder | pKd
PSDSVGKDVF [EGLN1, Q9GZT9] | below the threshold
KAEEKPPSKV [SCN4B, Q8IWT1] | below the threshold

What follows are binders tested against LNX1_1, Q8TBB1 (assay: holdup assay). Settings: plain residues with an end cap or a label only (N-terminal biotin on a linker: ado-ado).
Chain of LNX1_1, Q8TBB1 (Q8TBB1 261-371): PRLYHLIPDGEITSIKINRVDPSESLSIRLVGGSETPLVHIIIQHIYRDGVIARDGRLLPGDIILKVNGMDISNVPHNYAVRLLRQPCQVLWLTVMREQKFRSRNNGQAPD
Parameters: key: below the threshold = too weak to quantify, mostly under pKd 3.1 to 4

Binder | pKd
PSDSVGKDVF [EGLN1, Q9GZT9] | below the threshold
KAEEKPPSKV [SCN4B, Q8IWT1] | 3.49

What follows are binders tested against GRASP, Q7Z6J2 (assay: holdup assay). Settings: plain residues with an end cap or a label only (N-terminal biotin on a linker: ado-ado).
Chain of GRASP, Q7Z6J2 (Q7Z6J2 96-193): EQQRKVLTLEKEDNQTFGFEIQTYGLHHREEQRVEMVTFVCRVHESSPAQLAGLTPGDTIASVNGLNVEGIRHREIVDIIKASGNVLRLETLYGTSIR
Parameters: key: below the threshold = too weak to quantify, mostly under pKd 3.1 to 4

Binder | pKd
PSDSVGKDVF [EGLN1, Q9GZT9] | 3.7
KAEEKPPSKV [SCN4B, Q8IWT1] | below the threshold

These binders were tested against ARHGEF12, Q9NZN5-2 (assay: holdup assay). Settings: plain residues with an end cap or a label only (N-terminal biotin on a linker: ado-ado).
Chain of ARHGEF12, Q9NZN5-2 (Q9NZN5 other isoform, or with tags, fused parts or gaps): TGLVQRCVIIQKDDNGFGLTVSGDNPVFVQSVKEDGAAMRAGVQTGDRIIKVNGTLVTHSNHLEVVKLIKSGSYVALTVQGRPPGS
Parameters: key: below the threshold = too weak to quantify, mostly under pKd 3.1 to 4

Binder | pKd
PSDSVGKDVF [EGLN1, Q9GZT9] | below the threshold
KAEEKPPSKV [SCN4B, Q8IWT1] | below the threshold

The binders below were run against T4, DVL3, Q92997 (assay: holdup assay). Settings: plain residues with an end cap or a label only (N-terminal biotin on a linker: ado-ado).
Parameters: key: below the threshold = too weak to quantify, mostly under pKd 3.1 to 4

Binder | pKd
PSDSVGKDVF [EGLN1, Q9GZT9] | below the threshold
KAEEKPPSKV [SCN4B, Q8IWT1] | below the threshold

These binders were tested against Inadl_5, Q8NI35 (assay: holdup assay). Settings: plain residues with an end cap or a label only (N-terminal biotin on a linker: ado-ado).
Chain of Inadl_5, Q8NI35 (Q8NI35 673-780): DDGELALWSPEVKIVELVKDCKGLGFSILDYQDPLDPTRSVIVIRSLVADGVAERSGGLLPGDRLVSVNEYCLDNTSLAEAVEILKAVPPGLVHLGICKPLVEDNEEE
Parameters: key: below the threshold = too weak to quantify, mostly under pKd 3.1 to 4

Binder | pKd
PSDSVGKDVF [EGLN1, Q9GZT9] | below the threshold
KAEEKPPSKV [SCN4B, Q8IWT1] | below the threshold

The binders below were run against NHERF2_2, Q15599 (assay: holdup assay). Settings: plain residues with an end cap or a label only (N-terminal biotin on a linker: ado-ado).
Chain of NHERF2_2, Q15599 (Q15599 142-238): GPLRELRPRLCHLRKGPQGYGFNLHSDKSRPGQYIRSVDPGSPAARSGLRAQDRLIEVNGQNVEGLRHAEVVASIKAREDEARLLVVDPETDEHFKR
Parameters: key: below the threshold = too weak to quantify, mostly under pKd 3.1 to 4

Binder | pKd
PSDSVGKDVF [EGLN1, Q9GZT9] | below the threshold
KAEEKPPSKV [SCN4B, Q8IWT1] | below the threshold

The binders below were run against T5, TX1BP3, O14907 (assay: holdup assay). Settings: plain residues with an end cap or a label only (N-terminal biotin on a linker: ado-ado).
Parameters: key: below the threshold = too weak to quantify, mostly under pKd 3.1 to 4

Binder | pKd
PSDSVGKDVF [EGLN1, Q9GZT9] | below the threshold
KAEEKPPSKV [SCN4B, Q8IWT1] | below the threshold

Each binder was assayed against T6, LIN7A, O14910 (assay: holdup assay). Settings: plain residues with an end cap or a label only (N-terminal biotin on a linker: ado-ado).
Parameters: key: below the threshold = too weak to quantify, mostly under pKd 3.1 to 4

Binder | pKd
PSDSVGKDVF [EGLN1, Q9GZT9] | below the threshold
KAEEKPPSKV [SCN4B, Q8IWT1] | below the threshold

Each binder was assayed against T7, DLG3_3, Q92796 (assay: holdup assay). Settings: plain residues with an end cap or a label only (N-terminal biotin on a linker: ado-ado).
Parameters: key: below the threshold = too weak to quantify, mostly under pKd 3.1 to 4

Binder | pKd
PSDSVGKDVF [EGLN1, Q9GZT9] | below the threshold
KAEEKPPSKV [SCN4B, Q8IWT1] | below the threshold

The binders below were run against MAST2, Q6P0Q8 (assay: holdup assay). Settings: plain residues with an end cap or a label only (N-terminal biotin on a linker: ado-ado).
Chain of MAST2, Q6P0Q8 (Q6P0Q8 1099-1202): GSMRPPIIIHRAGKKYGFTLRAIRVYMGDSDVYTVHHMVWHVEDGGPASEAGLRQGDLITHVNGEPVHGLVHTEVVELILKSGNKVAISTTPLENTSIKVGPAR
Parameters: key: below the threshold = too weak to quantify, mostly under pKd 3.1 to 4

Binder | pKd
PSDSVGKDVF [EGLN1, Q9GZT9] | below the threshold
KAEEKPPSKV [SCN4B, Q8IWT1] | below the threshold

What follows are binders tested against MAGI2_6, Q86UL8 (assay: holdup assay). Settings: plain residues with an end cap or a label only (N-terminal biotin on a linker: ado-ado).
Chain of MAGI2_6, Q86UL8 (Q86UL8 1141-1229): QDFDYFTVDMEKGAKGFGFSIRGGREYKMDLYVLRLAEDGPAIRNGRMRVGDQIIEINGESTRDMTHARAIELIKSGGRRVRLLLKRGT
Parameters: key: below the threshold = too weak to quantify, mostly under pKd 3.1 to 4

Binder | pKd
PSDSVGKDVF [EGLN1, Q9GZT9] | below the threshold
KAEEKPPSKV [SCN4B, Q8IWT1] | below the threshold

Each binder was assayed against FRMPD2_1, Q68DX3 (assay: holdup assay). Settings: plain residues with an end cap or a label only (N-terminal biotin on a linker: ado-ado).
Chain of FRMPD2_1, Q68DX3 (Q68DX3 770-861): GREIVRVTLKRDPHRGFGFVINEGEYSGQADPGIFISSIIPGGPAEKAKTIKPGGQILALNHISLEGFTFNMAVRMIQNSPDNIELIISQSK
Parameters: key: below the threshold = too weak to quantify, mostly under pKd 3.1 to 4

Binder | pKd
PSDSVGKDVF [EGLN1, Q9GZT9] | below the threshold
KAEEKPPSKV [SCN4B, Q8IWT1] | below the threshold

Each binder was assayed against GRID2IP_1, A4D2P6 (assay: holdup assay). Settings: plain residues with an end cap or a label only (N-terminal biotin on a linker: ado-ado).
Chain of GRID2IP_1, A4D2P6 (A4D2P6 1-87): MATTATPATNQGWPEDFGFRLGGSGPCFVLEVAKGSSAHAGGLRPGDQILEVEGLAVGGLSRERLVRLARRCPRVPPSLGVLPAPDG
Parameters: key: below the threshold = too weak to quantify, mostly under pKd 3.1 to 4

Binder | pKd
PSDSVGKDVF [EGLN1, Q9GZT9] | below the threshold
KAEEKPPSKV [SCN4B, Q8IWT1] | below the threshold

The binders below were run against MAGI2_2, Q86UL8 (assay: holdup assay). Settings: plain residues with an end cap or a label only (N-terminal biotin on a linker: ado-ado).
Chain of MAGI2_2, Q86UL8 (Q86UL8 410-522): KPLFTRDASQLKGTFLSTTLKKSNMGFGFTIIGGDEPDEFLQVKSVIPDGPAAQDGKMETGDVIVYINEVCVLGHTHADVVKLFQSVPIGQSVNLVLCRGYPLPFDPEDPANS
Parameters: key: below the threshold = too weak to quantify, mostly under pKd 3.1 to 4

Binder | pKd
PSDSVGKDVF [EGLN1, Q9GZT9] | below the threshold
KAEEKPPSKV [SCN4B, Q8IWT1] | below the threshold

What follows are binders tested against NHERF4_4, Q86UT5 (assay: holdup assay). Settings: plain residues with an end cap or a label only (N-terminal biotin on a linker: ado-ado).
Chain of NHERF4_4, Q86UT5 (Q86UT5 464-550): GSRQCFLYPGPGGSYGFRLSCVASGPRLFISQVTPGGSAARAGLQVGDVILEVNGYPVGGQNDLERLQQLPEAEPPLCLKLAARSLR
Parameters: key: below the threshold = too weak to quantify, mostly under pKd 3.1 to 4

Binder | pKd
PSDSVGKDVF [EGLN1, Q9GZT9] | below the threshold
KAEEKPPSKV [SCN4B, Q8IWT1] | below the threshold

What follows are binders tested against DLG5_1, Q8TDM6 (assay: holdup assay). Settings: plain residues with an end cap or a label only (N-terminal biotin on a linker: ado-ado).
Chain of DLG5_1, Q8TDM6 (Q8TDM6 617-713): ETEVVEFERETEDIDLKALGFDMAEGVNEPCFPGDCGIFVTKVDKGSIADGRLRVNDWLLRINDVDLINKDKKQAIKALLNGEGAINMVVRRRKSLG
Parameters: key: below the threshold = too weak to quantify, mostly under pKd 3.1 to 4

Binder | pKd
PSDSVGKDVF [EGLN1, Q9GZT9] | below the threshold
KAEEKPPSKV [SCN4B, Q8IWT1] | below the threshold

These binders were tested against T8, PTPN13_1, Q12923 (assay: holdup assay). Settings: plain residues with an end cap or a label only (N-terminal biotin on a linker: ado-ado).
Parameters: key: below the threshold = too weak to quantify, mostly under pKd 3.1 to 4

Binder | pKd
PSDSVGKDVF [EGLN1, Q9GZT9] | below the threshold
KAEEKPPSKV [SCN4B, Q8IWT1] | below the threshold

These binders were tested against Inadl_10, Q8NI35 (assay: holdup assay). Settings: plain residues with an end cap or a label only (N-terminal biotin on a linker: ado-ado).
Chain of Inadl_10, Q8NI35 (Q8NI35 1673-1763): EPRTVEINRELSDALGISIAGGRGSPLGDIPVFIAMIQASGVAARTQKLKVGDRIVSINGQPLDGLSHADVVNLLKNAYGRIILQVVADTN
Parameters: key: below the threshold = too weak to quantify, mostly under pKd 3.1 to 4

Binder | pKd
PSDSVGKDVF [EGLN1, Q9GZT9] | below the threshold
KAEEKPPSKV [SCN4B, Q8IWT1] | below the threshold

What follows are binders tested against GOPC, Q9HD26 (assay: holdup assay). Settings: plain residues with an end cap or a label only (N-terminal biotin on a linker: ado-ado).
Parameters: key: below the threshold = too weak to quantify, mostly under pKd 3.1 to 4

Binder | pKd
PSDSVGKDVF [EGLN1, Q9GZT9] | below the threshold
KAEEKPPSKV [SCN4B, Q8IWT1] | below the threshold

The binders below were run against T9, PCLO, Q9Y6V0 (assay: holdup assay). Settings: plain residues with an end cap or a label only (N-terminal biotin on a linker: ado-ado).
Parameters: key: below the threshold = too weak to quantify, mostly under pKd 3.1 to 4

Binder | pKd
PSDSVGKDVF [EGLN1, Q9GZT9] | below the threshold
KAEEKPPSKV [SCN4B, Q8IWT1] | below the threshold

Each binder was assayed against Inadl_1, Q8NI35 (assay: holdup assay). Settings: plain residues with an end cap or a label only (N-terminal biotin on a linker: ado-ado).
Chain of Inadl_1, Q8NI35 (Q8NI35 113-229): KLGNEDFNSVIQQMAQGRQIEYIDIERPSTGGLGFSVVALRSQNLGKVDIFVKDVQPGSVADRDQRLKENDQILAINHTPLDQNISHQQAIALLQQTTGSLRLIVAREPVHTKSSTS
Parameters: key: below the threshold = too weak to quantify, mostly under pKd 3.1 to 4

Binder | pKd
PSDSVGKDVF [EGLN1, Q9GZT9] | below the threshold
KAEEKPPSKV [SCN4B, Q8IWT1] | below the threshold

These binders were tested against T10, DLG3_1, Q92796 (assay: holdup assay). Settings: plain residues with an end cap or a label only (N-terminal biotin on a linker: ado-ado).
Parameters: key: below the threshold = too weak to quantify, mostly under pKd 3.1 to 4

Binder | pKd
PSDSVGKDVF [EGLN1, Q9GZT9] | below the threshold
KAEEKPPSKV [SCN4B, Q8IWT1] | below the threshold
